Results taken from PMC10978848, “Insights into the dual nature of αB-crystallin chaperone activity from the p.P39L mutant at the N-terminal region” (Scientific Reports, 2024).

Target: the molecule itself
Assay: AUC; sedimentation velocity, 40,000 rpm, 20 °C, absorbance at 280 nm, buffer A (50 mM sodium phosphate, pH 7.4); masses from c(M) after Schuck; size of the oligomer

Protein	stoichiometry N [subunits]
human αB-crystallin, wild-type (natural protein, UniProt P02511 1-175, looked up, human αB-crystallin (CRYAB, HspB5); It names no tag; also called CRYAB; HspB5; source: E. coli, IPTG-induced, purified (anion exchange, DEAE cellulose); copies: 24) MDIAIHHPWIRRPFFPFHSPSRLFDQFFGEHLLESDLFPTSTSLSPFYLRPPSFLRAPSWFDTGLSEMRLEKDRFSVNLDVKHFSPEELKVKVLGDVIEVHGKHEERQDEHGFISREFHRKYRIPADVDPLTITSSLSSDGVLTVNGPRKQVSGPERTIPITREEKPAVTAAPKK	24
human αB-crystallin p.P39L mutant (natural protein, UniProt P02511 1-175, looked up, human αB-crystallin (CRYAB, HspB5) with the variant p.P39L, which was found in a patient; It names no tag; also called p.P39L αB-Cry; mutant αB-Cry; source: E. coli, IPTG-induced, purified (anion exchange, DEAE cellulose); copies: 48) MDIAIHHPWIRRPFFPFHSPSRLFDQFFGEHLLESDLFLTSTSLSPFYLRPPSFLRAPSWFDTGLSEMRLEKDRFSVNLDVKHFSPEELKVKVLGDVIEVHGKHEERQDEHGFISREFHRKYRIPADVDPLTITSSLSSDGVLTVNGPRKQVSGPERTIPITREEKPAVTAAPKK	48
